Test results as given in FireProtDB (doi:10.1093/protein/14.12.967).
Where “and” joins values, the source holds several entries; their conditions need not be identical. Equal values may be shown once.

Details: Canis lupus familiaris, Thermal, DSC, reversible: yes, whole UniProt chain shown
[1] = pH 1.95, glycine hydrochloride 50 mM, transition: 3
[2] = pH 4.5, 66.4 °C, sodium acetate 50 mM

B1: Lysozyme C, milk isozyme wild type, P81708 (protein)
chain: KIFSKCELARKLKSMGMDGFHGYSLANWVCMAEYESNFNTQAFNGRNSNGSSDYGIFQLNSKWWCKSNSHSSANACNIMCSKFLDDNIDDDIACAKRVVKDPNGMSAWVAWVKHCKGKDLSKYLASCNL
- Tm [1]: 60 °C
- unfolding enthalpy (calorimetric) [1]: 29.6 kcal/mol
- unfolding enthalpy (calorimetric) (pH 2.74, glycine hydrochloride 50 mM, transition: 3): 21.3 kcal/mol and 37.8 kcal/mol
- unfolding enthalpy (calorimetric) (pH 3, glycine hydrochloride 50 mM, transition: 3): 31.8 kcal/mol and 36.9 kcal/mol
- unfolding enthalpy (calorimetric) (pH 3.24, glycine hydrochloride 50 mM, transition: 3): 35.6 kcal/mol and 43 kcal/mol
- unfolding enthalpy (calorimetric) (pH 3.46, glycine hydrochloride 50 mM, transition: 3): 37.7 kcal/mol and 42 kcal/mol
- unfolding enthalpy (calorimetric) [2]: 30.9 kcal/mol
- unfolding free energy [2]: 2.15 kcal/mol
- unfolding enthalpy (calorimetric) (pH 4.5, sodium acetate 50 mM, CaCl2 10 mM, transition: 3): 67.4 kcal/mol and 44.4 kcal/mol
- unfolding enthalpy (calorimetric) (pH 4.5, sodium acetate 50 mM, transition: 3): 42.1 kcal/mol and 44.4 kcal/mol
